biological target: T1, MERS Receptor Binding Domain (RBD) protein (MERS virus, UniProt K9N5Q8 367-606); test: SPR; clone listed as COV2 only at the 21st table, row 55, column 3
T1 construct: also called Middle East Respiratory Syndrome (MERS) virus
T1 sequence: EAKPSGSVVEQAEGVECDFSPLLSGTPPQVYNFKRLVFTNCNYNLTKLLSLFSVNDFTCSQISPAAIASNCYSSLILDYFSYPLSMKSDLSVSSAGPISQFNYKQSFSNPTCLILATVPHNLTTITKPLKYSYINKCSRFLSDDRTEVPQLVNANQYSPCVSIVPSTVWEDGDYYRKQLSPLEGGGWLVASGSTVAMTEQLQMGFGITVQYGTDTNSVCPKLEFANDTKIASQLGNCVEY

Binder | binding result
COVID19_P09_B09 (scFv, V domains shown) VH: QVQLVQSGAEVKKPGSSVKVSCKASGYRFTDYHLHWVRQAPGQGLEWMGGIVPFSGTTNFAQKFQGRVTITADESTSTAYMELSSLRSEDTAVYYCAGGSGETTPMDVWGQGTLVTVSS VL: not shown | no binding (tested: up to 300 nM)

biological target: T2, SARS-CoV-1 Receptor Binding Domain (RBD) protein (SARS-CoV-1, UniProt P59594 306-527); test: as above
T2 construct: also called SARS1

Binder | binding result
COVID19_P09_B09 (scFv, V domains shown) VH: QVQLVQSGAEVKKPGSSVKVSCKASGYRFTDYHLHWVRQAPGQGLEWMGGIVPFSGTTNFAQKFQGRVTITADESTSTAYMELSSLRSEDTAVYYCAGGSGETTPMDVWGQGTLVTVSS VL: not shown | no binding (tested: up to 300 nM)

biological target: SARS-CoV-2 Receptor Binding Domain (RBD) protein (SARS-CoV-2, UniProt P0DTC2 319-541); test: not given

Binder | Kd [µM] | koff [s⁻¹] | kon [M⁻¹ s⁻¹]
COVID19_P21_A03 (scFv, V domains shown) VH: QVQLVQSGAEVKKPGSSVKVSCKASGGTFSNNGLSWVRQAPGQGLEWMGGIIPIFGTANYAQKFQGRVTITADESTSTAYMELSSLRSEDTAVYYCRMGSGISTPMDVWGQGTLVTVSS VL: not shown | 0.0206 | 0.000858 | 41700
COVID19_P09_G12 (scFv, V domains shown) VH: QVQLVQSGAEVKKPGSSVKVSCKASGYPFTNYGISWVRQAPGQGLEWMGWMNPNSGNTGYAQKFQGRVTITADESTSTAYMELSSLRSEDTAVYYCATLSGISTPMDVWGQGTLVTVSS VL: not shown | 0.0004 | 0.000363 | 828000
COVID19_P21_A05 (scFv, V domains shown) VH: QVQLVQSGAEVKKPGSSVKVSCKASGGGFITYWIGWVRQAPGQGLEWMGIIYPGDGETRYSQKFQGRVTITADESTSTAYMELSSLRSEDTAVYYCAGGSGISTPMDVWGQGTLVTVSS VL: not shown | 0.0412 | 0.0173 | 419000
COVID19_P21_F02 (scFv, V domains shown) VH: QVQLVQSGAEVKKPGSSVKVSCKASGYTFTSYGISWVRQAPGQGLEWMGIIYPGDGTTRYSQKFQGRVTITADESTSTAYMELSSLRSEDTAVYYCLPGSGISTPMDVWGQGTLVTVSS VL: not shown | 0.0268 | 0.000679 | 25400
COVID19_P09_G05 (scFv, V domains shown) VH: QVQLVQSGAEVKKPGSSVKVSCKASGYTFTGHYMHWVRQAPGQGLEWMGIIYPGDSEARYSQKFQGRVTITADESTSTAYMELSSLRSEDTAVYYCAGGSGISTPMDVWGQGTLVTVSS VL: not shown | 0.0113 | 0.000482 | 42600
COVID19_P21_A04 (scFv, V domains shown) VH: QVQLVQSGAEVKKPGSSVKVSCKASGYGFITYWIGWVRQAPGQGLEWMGIIYPGDSETRYSQKFQGRVTITADESTSTAYMELSSLRSEDTAVYYCAGGSGLLTPMDVWGQGTLVTVSS VL: not shown | 0.035 | 0.0143 | 409000
COVID19_P10_B08 (scFv, V domains shown) VH: QVQLVQSGAEVKKPGSSVKVSCKASGGGFITYWIGWVRQAPGQGLEWMGWINPNSGGTKYAQKFQGRVTITADESTSTAYMELSSLRSEDTAVYYCAGGSGISTPIDVWGQGTLVTVSS VL: not shown | 0.0413 | 0.0217 | 527000
COVID19_P21_E07 (scFv, V domains shown) VH: QVQLVQSGAEVKKPGSSVKVSCKASGYGFITYWIGWVRQAPGQGLEWMGIIYPGDSETRYSQKFQGRVTITADESTSTAYMELSSLRSEDTAVYYCAGGSGISTPMDVWGQGTLVTVSS VL: not shown | 0.041 | 0.0155 | 378000
COVID19_P21_A10 (scFv, V domains shown) VH: QVQLVQSGAEVKKPGSSVKVSCKASGYGFITYWIGWVRQAPGQGLEWMGIIYPGDGEARYSQKFQGRVTITADESTSTAYMELSSLRSEDTAVYYCAGGSGISTPMDVWGQGTLVTVSS VL: not shown | 0.0462 | 0.00729 | 158000
COVID19_P21_H02 (scFv, V domains shown) VH: QVQLVQSGAEVKKPGSSVKVSCKASGYGFITYWIGWVRQAPGQGLEWMGIIYPGDSETRYAQKFQGRVTITADESTSTAYMELSSLRSEDTAVYYCAGGSGLYTPMDVWGQGTLVTVSS VL: not shown | 0.0403 | 0.0124 | 308000
COVID19_P22_E10 (scFv, V domains shown) VH: QVQLVQSGAEVKKPGSSVKVSCKASGGGFITYWIGWVRQAPGQGLEWMGIIYPGDGETRYSQKFQGRVTITADESTSTAYMELSSLRSEDTAVYYCAGGSGISTPMDVWGQGTLVTVSS VL: not shown | 0.0253 | 0.0058 | 230000
COVID19_P22_D06 (scFv, V domains shown) VH: QVQLVQSGAEVKKPGSSVKVSCKASGGGFITYWIGWVRQAPGQGLEWMGIIYPGDSETRYSQKFQGRVTITADESTSTAYMELSSLRSEDTAVYYCAGGSGVLTPMDVWGQGTLVTVSS VL: not shown | 0.0305 | 0.012 | 410000
COVID19_P09_G04 (scFv, V domains shown) VH: QVQLVQSGAEVKKPGSSVKVSCKASGYGFITYWIGWVRQAPGQGLEWMGIIYPGDSETNYSQKFQGRVTITADESTSTAYMELSSLRSEDTAVYYCAGGSGLFTPMDVWGQGTLVTVSS VL: not shown | 0.00618 | 0.00381 | 616000
COVID19_P21_C09 (scFv, V domains shown) VH: QVQLVQSGAEVKKPGSSVKVSCKASGYGFISYWIGWVRQAPGQGLEWMGIIYPGDSETRYSQKFQGRVTITADESTSTAYMELSSLRSEDTAVYYCAGGSGILEPMDVWGQGTLVTVSS VL: not shown | 0.0285 | 0.0157 | 551000
COVID19_P10_B04 (scFv, V domains shown) VH: QVQLVQSGAEVKKPGSSVKVSCKASGYGFISYWIGWVRQAPGQGLEWMGIIYPGDGETRYSQKFQGRVTITADESTSTAYMELSSLRSEDTAVYYCAGSDGISTPMDVWGQGTLVTVSS VL: not shown | 0.0362 | 0.0223 | 614000
COVID19_P21_B11 (scFv, V domains shown) VH: QVQLVQSGAEVKKPGSSVKVSCKASGYGFITYWIGWVRQAPGQGLEWMGIIYPGDSETRYSQKFQGRVTITADESTSTAYMELSSLRSEDTAVYYCAGSDGISTPMDVWGQGTLVTVSS VL: not shown | 0.0263 | 0.0166 | 631000
COVID19_P21_E08 (scFv, V domains shown) VH: QVQLVQSGAEVKKPGSSVKVSCKASGYGFITYWIGWVRQAPGQGLEWMGIIYPGDGETRYSQKFQGRVTITADESTSTAYMELSSLRSEDTAVYYCAGGSGISTPMDVWGQGTLVTVSS VL: not shown | 0.0328 | 0.0142 | 434000
COVID19_P09_C08 (scFv, V domains shown) VH: QVQLVQSGAEVKKPGSSVKVSCKASGYGFITYWIGWVRQAPGQGLEWMGIIYPGDSETRYAQKFQGRVTITADESTSTAYMELSSLRSEDTAVYYCAGGSGISTPMDVWGQGTLVTVSS VL: not shown | 0.0287 | 0.0131 | 458000
COVID19_P21_B12 (scFv, V domains shown) VH: QVQLVQSGAEVKKPGSSVKVSCKASGGTFSSYAISWVRQAPGQGLEWMGMINPGGGNTNYAEKFQGRVTITADESTSTAYMELSSLRSEDTAVYYCAGEWGISTPMDVWGQGTLVTVSS VL: not shown | 0.0376 | 0.0104 | 276000
COVID19_P09_B09 (scFv, V domains shown) VH: QVQLVQSGAEVKKPGSSVKVSCKASGYRFTDYHLHWVRQAPGQGLEWMGGIVPFSGTTNFAQKFQGRVTITADESTSTAYMELSSLRSEDTAVYYCAGGSGETTPMDVWGQGTLVTVSS VL: not shown | 0.0229 | 0.000507 | 22100

biological target: T1, MERS Receptor Binding Domain (RBD) …; test: SPR; clone listed as COV2 only at the 21st table, row 53, column 3

Binder | binding result
COVID19_P09_G12 (scFv, V domains shown) VH: QVQLVQSGAEVKKPGSSVKVSCKASGYPFTNYGISWVRQAPGQGLEWMGWMNPNSGNTGYAQKFQGRVTITADESTSTAYMELSSLRSEDTAVYYCATLSGISTPMDVWGQGTLVTVSS VL: not shown | no binding (tested: up to 300 nM)

biological target: T2, SARS-CoV-1 Receptor Binding Domain …; test: as above

Binder | binding result
COVID19_P09_G12 (scFv, V domains shown) VH: QVQLVQSGAEVKKPGSSVKVSCKASGYPFTNYGISWVRQAPGQGLEWMGWMNPNSGNTGYAQKFQGRVTITADESTSTAYMELSSLRSEDTAVYYCATLSGISTPMDVWGQGTLVTVSS VL: not shown | no binding (tested: up to 300 nM)

— patent publication US11034762 (CENTIVAX, dated 2021)
